# Paper PMC11852163, “Development and Characterization of CD44-Targeted X-Aptamers with Enhanced Binding Affinity for Cancer Therapeutics”
# B1: XA2-NH2 (XNA)
# DNA: TGCAGATCTGCAAGGGAACCAAGGACACTAC
# modifications: NH2 form; no X in the printed sequence, X position unknown; monothioate backbone
# B2: XA2-ADDA (XNA)
# DNA: B1 DNA
# modifications: ADDA form; no X in the printed sequence, X position unknown; monothioate backbone
# Legend:
# CD44-HABD [1] = target: CD44-HABD (UniProt P16070); assay: filter binding; details: monothioate backbone, Filter binding: 1 nM biotinylated XA, 20 mM Tris pH 8.0, 150 mM NaCl, 40 min, room temperature, cell binding at room temperature, 30-60 min
# CD44-HABD [2] = target: CD44-HABD (UniProt P16070 20-178); assay: filter binding; Filter binding: 1 nM biotinylated XA, 20 mM Tris pH 8.0, 150 mM NaCl, 40 min, room temperature; cell binding at room temperature, 30-60 min; details: protein: recombinant; label: biotin
# Chain of CD44-HABD (UniProt P16070 20-178) (P16070 20-178): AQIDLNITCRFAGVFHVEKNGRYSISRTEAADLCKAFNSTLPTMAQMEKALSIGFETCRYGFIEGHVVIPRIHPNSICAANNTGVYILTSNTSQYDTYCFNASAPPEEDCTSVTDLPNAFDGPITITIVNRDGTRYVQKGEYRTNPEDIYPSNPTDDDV
# Chain of CD44-HABD (UniProt P16070) (P16070 20-178): as above
molecule,measurement,setting,value
TTGGGGCCTGCAAGACGTCCATAGACACAG [XA4-ADDA],Kd,CD44-HABD [1]; X = T18 as ADDA-conjugated amino-dU,103 nM
TTAAGATCTGCAATGTAACCATAGACACAG [XA9-NH2],Kd,CD44-HABD [1]; X = T14 as amino-dU,111 nM
TTAAGATCTGCAATGTAACCATAGACACAG [XA9-ADDA],Kd,CD44-HABD [1]; X = T14 as ADDA-conjugated amino-dU,77.6 nM
TTAAGATCTGTTAGGGAACCAAGACGACAG [XA1-NH2],Kd,"CD44-HABD [1]; X = T9, T11 as 5-(aminoethyl-3-acrylimido)-dU",55.5 nM
TGCAGATACAGTAAACGTCCATAGACACAG [XA5-ADDA],Kd,"CD44-HABD [1]; X = T7, T18 as ADDA-conjugated amino-dU",125 nM
TTGGGGCCTGCAAGACGTCCATAGACACAG [XA4-NH2],Kd,CD44-HABD [1]; X = T18 as amino-dU,137 nM
TTAAGATCTGTTAGGGAACCAAGACGACAG [XA1-ADDA],Kd,"CD44-HABD [1]; X = T9, T11 as ADDA-conjugated amino-dU",78.3 nM
TGCAGATACAGTAAACGTCCATAGACACAG [XA5-NH2],Kd,"CD44-HABD [1]; X = T7, T18 as amino-dU",137 nM
B1,Kd,CD44-HABD [2],62.9 ± 10.3 nM
B2,Kd,CD44-HABD [2],109 ± 15.4 nM
